Reference: US20240400685A1

Assays:
human CD20 (human) = human CD20 (human) (UniProt P11836); test: cell-based or functional assay
[1] = target: human CD3 epsilon (human) (UniProt P07766); test: cell-based or functional assay
Sequence of human CD3 epsilon (human) (P07766 23-207): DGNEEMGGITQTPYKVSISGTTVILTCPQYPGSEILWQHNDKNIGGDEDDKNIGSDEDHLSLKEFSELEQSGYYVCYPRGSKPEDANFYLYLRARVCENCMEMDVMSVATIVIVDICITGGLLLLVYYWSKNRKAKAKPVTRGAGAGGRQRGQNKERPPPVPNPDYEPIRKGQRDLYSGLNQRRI

Sequence of human CD20 (human) (P11836 whole entry): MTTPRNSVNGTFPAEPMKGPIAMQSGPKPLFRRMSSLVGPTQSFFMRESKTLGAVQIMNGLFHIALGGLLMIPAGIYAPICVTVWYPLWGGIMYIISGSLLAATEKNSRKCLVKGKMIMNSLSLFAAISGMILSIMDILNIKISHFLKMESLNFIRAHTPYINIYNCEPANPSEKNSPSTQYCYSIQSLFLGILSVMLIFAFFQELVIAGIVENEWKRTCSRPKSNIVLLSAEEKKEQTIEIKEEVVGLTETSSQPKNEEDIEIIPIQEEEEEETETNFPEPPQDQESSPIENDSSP

biological activity, T-cell activation assay (human CD20 (human)): 40% | biological activity, T-cell activation assay [1]: 40%
Substance: epcoritamab LMWS fraction (Fc+Fab fragment)
